# In PMC2885749:
# Biological target: TolCΔ2–22 (signal sequence-less mature TolC, His-tagged) (E. coli) (UniProt P02930)
# Experiment: SDS-PAGE of unheated samples
substance,measurement,value
"TolCΔ2–22 (signal sequence-less mature TolC, His-tagged) (from UniProt P02930 23-493) (natural protein)",stoichiometry N,3
